The results in this text go back to PMC4703965, “Inhibition of Canonical NF-κB Signaling by a Small Molecule Targeting NEMO-Ubiquitin Interaction” (Scientific Reports, 2016).

One may read the stoichiometry N as the number of molecules, sites or subunits per partner or assembly. A word on the Kd: it is the free concentration of one partner at which half of the binding sites on the other are occupied at equilibrium, for simple one-to-one binding.

Residue numbers refer to the chain shown, from its start. In names and notes the source's numbering stands.

In data set [1] the target is T1, linear Ub2 (UniProt P0CG48 1-76; P0CG48 1-76).
T1 construct: ubiquitin, distal moiety of Met1-linked linear di-ubiquitin (two ubiquitins head to tail on one chain); ubiquitin, proximal moiety of Met1-linked linear di-ubiquitin; also called linUb2; methionine-1-linked linear di-ubiquitin; source: recombinant
The data set can be described thus: NMR titration; 1H,15N TROSY of 100 μM 15N-labeled NEMO_(UBAN) (258–350) without or with unlabeled linear Ub2 at 2:1 (NEMO_(UBAN):Ub2). The following applies: both partners purified.

Data set [2] deals with the molecule itself. The data set can be described thus: SEC-MALS; size exclusion chromatography (SEC) in combination with static light scattering (SLS); in solution.
Data set [3] deals with the molecule itself. The data set can be described thus: SAXS; 293 K; 300 mM NaCl, 50 mM Tris-HCl pH 8.0; NEMO_(UBAN) C347S 2.8–9.9 mg/ml; NEMO_(UBAN) C347S and linear Ub2 mixed 2:1 (3.5–12.9 mg/ml) and 2:2 (4.9–12.1 mg/ml).
Data set [4] has as its target T1, linear Ub2. Kind of data set: MST + ITC; Microscale Thermophoresis and Isothermal Titration Calorimetry of NEMO_(UBAN) C347S with linUb2; conditions not shown. The following applies: both partners purified.

B1: NEMO_(UBAN) (258–350) (domain or fragment, UniProt Q9Y6K9 258-350, looked up)
chain: MQLEDLKQQLQQAEEALVAKQEVIDKLKEEAEQHKIVMETVPVLKAQADIYKADFQAERQAREKLAEKKELLQEQLEQLQREYSKLKASCQES
notes: NEMO (IKKγ, NF-κB essential modulator), UBAN / CC2-LZ region, residues 258–350; 15N-labelled for the NMR experiment; The His6 tag was cleavable by 3C or TEV protease; also called NEMO_(258–350); NEMO_(UBAN) WT; source: cloned into pET vectors, recombinant, purified (details in the Supporting Information); not shown: His6, N-terminal, cleaved
For the molecule B1, the binding result in the data set with linear Ub2 [1] is “binds”. Besides, the “stoichiometry N” value in data set [2] is 2.

B2: NEMO_(UBAN) C347S (258–350) (domain or fragment, UniProt Q9Y6K9 258-350, looked up)
chain: B1 chain with C90S
notes: NEMO (IKKγ), UBAN / CC2-LZ region, residues 258–350 with C347S; Used for SAXS, for MST/ITC and unlabelled in the NMR experiments with 15N-linUb2; also called NEMO_(258–350) C347S; source: cloned into pET vectors, recombinant, purified (details in the Supporting Information); not shown: His6, N-terminal, cleaved
For the molecule B2, in data set [3], the “stoichiometry N” value came to 2. Besides, the Kd in the data set with linear Ub2 [4] lay in the range of 1 to 2 µM.
